From article PMC11796321, “Interleukin‐11 receptor is an alternative α‐receptor for interleukin‐6 and the chimeric cytokine IC7” (The Febs Journal, 2024)
Values belong to the binder of their own block, whether it stands above or below them.

B2: Hyper IL-11 (fusion protein of shIL-11R and hIL-11), Twin-Strep-tagged (other)
chain: SSPCPQAWGPPGVQYGQPGRSVKLCCPGVTAGDPVSWFRDGEPKLLQGPDSGLGHELVLAQADSTDEGTYICQTLDGALGGTVTLQLGYPPARPVVSCQAADYENFSCTWSPSQISGLPTRYLTSYRKKTVLGADSQRRSPSTGPWPCPQDPLGAARCVVHGAEFWSQYRINVTEVNPLGASTRLLDVSLQSILRPDPPQGLRVESVPGYPRRLRASWTYPASWPCQPHFLLKFRLQYRPAQHPAWSTVEPAGLEEVITDAVAGLPHAVRVSARDFLDAGTWSTWSPEAWGTPSTGGGSGGGSPGPPPGPPRVSPDPRAELDSTVLLTRSLLADTRQLAAQLRDKFPADGDHNLDSLPTLAMSAGALGALQLPGVLTRLRADLLSYLRHVQWLRRAGGSSLKTLEPELGTLQARLDRLLRRLQLLMSRLALPQPPPDPPAPPLAPPSSAWGGIRAAHAILGGLHLTLDWAVRGLLLLKTRL
B3: sgp130Fc (fusion protein of soluble hgp130 to the Fc-part of an IgG antibody) (Fc fusion, human, UniProt P40189 23-619, looked up)
chain: ELLDPCGYISPESPVVQLHSNFTAVCVLKEKCMDYFHVNANYIVWKTNHFTIPKEQYTIINRTASSVTFTDIASLNIQLTCNILTFGQLEQNVYGITIISGLPPEKPKNLSCIVNEGKKMRCEWDGGRETHLETNFTLKSEWATHKFADCKAKRDTPTSCTVDYSTVYFVNIEVWVEAENALGKVTSDHINFDPVYKVKPNPPHNLSVINSEELSSILKLTWTNPSIKSVIILKYNIQYRTKDASTWSQIPPEDTASTRSSFTVQDLKPFTEYVFRIRCMKEDGKGYWSDWSEEASGITYEDRPSKAPSFWYKIDPSHTQGYRTVQLVWKTLPPFEANGKILDYEVTLTRWKSHLQNYTVNATKLTVNLTNDRYLATLTVRNLVGKSDAAVLTIPACDFQATHPVMDLKAFPKDNMLWVEWTTPRESVKKYILEWCVLSDKAPCITDWQQEDGTVHRTYLRGNLAESKCYLITVTPVYADGPGSPESIKAYLKQAPPSKGPTVRTKKVGKNEAVLEWDQLPVDVQNGFIRNYTIFYRTIIGNETAVNVDSSHTEYTLSSLTSDTLYMVRMAAYTDEGGKDGPEFTFTTPKFAQGEIE

Legend:
[1] = target: T1, recombinant his-tagged soluble human IL-11R (human, UniProt Q14626 24-370); test: cell-based or functional assay
T1 sequence (looked up): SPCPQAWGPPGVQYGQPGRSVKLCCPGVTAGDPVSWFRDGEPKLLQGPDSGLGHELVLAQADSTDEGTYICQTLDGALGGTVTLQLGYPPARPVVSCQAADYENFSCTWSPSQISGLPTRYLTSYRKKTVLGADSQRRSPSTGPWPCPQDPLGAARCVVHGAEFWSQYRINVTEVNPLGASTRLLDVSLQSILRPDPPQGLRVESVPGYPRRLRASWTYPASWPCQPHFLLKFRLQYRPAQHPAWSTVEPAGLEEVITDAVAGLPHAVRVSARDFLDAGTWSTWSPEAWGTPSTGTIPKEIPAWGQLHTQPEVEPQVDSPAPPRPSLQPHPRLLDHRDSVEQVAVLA

[2] = target: T2, recombinant his-tagged soluble human IL-6R (human, UniProt P08887 20-365); test: SPR; Biacore X100, multi-cycle, NTA sensor chip; his-tagged soluble hIL-6R or hIL-11R immobilised (100-250 RU per cycle); cytokines injected 133.33 to 0.183 nM, 30 uL/min, 180 s, dissociation 800 s; 25 °C, PBS with 0.05% P20 and 50 uM EDTA; two-state reaction fit; design: ka1 (two-state fit, first step) / ka2 (two-state fit, second step): unit not given here; conditions: both partners purified
T2 construct: soluble human IL-6 α-receptor; In functional rows this id also stands for hIL-6R expressed on Ba/F3 cells (whole receptor); the readout says so; also called sIL-6R; shIL-6R; source: bought: R&D Systems (cat. no. 10537)
T2 sequence (looked up): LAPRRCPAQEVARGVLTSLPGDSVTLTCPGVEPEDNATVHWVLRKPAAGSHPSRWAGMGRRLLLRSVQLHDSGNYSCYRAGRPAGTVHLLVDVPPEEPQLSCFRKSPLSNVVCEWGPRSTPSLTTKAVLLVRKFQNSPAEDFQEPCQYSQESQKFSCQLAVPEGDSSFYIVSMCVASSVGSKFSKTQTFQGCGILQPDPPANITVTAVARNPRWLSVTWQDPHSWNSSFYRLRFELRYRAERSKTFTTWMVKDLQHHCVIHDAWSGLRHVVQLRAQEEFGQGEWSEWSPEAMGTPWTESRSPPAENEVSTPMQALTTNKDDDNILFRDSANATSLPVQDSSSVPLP

[3] = target: T1, recombinant his-tagged soluble human …; test: as above; design: ka1 (two-state fit, first step) / ka2 (two-state fit, second step): unit not given here; conditions: both partners purified
[4] = target: B3; test: SPR; Biacore X100, Protein A sensor chip; sgp130Fc captured via its Fc (200-300 RU per cycle); hyper-cytokines injected 30 uL/min, 120 s, dissociation 300 s (200-0.20 nM cHIL-6, 25-0.05 nM HIL-6, 50-0.62 nM HIL-11); 1:1 binding model; conditions: both partners purified
[5] = target: B3; test: cell-based or functional assay
[6] = target: chimeric Hyper-cytokine IL-6/sIL-11R (cHIL-6), Twin-Strep-tagged (human, UniProt Q14626 23-317); test: cell-based or functional assay
[7] = target: B2; test: cell-based or functional assay
[8] = target: Hyper IL-6 (fusion protein of human sIL-6R and human IL-6), Twin-Strep-tagged (human); test: cell-based or functional assay

- EC50 of proliferation of Ba/F3-hgp130-hIL-11R cells (hIL-11R on cells), 72 h [1]: 0.0216 nM
- Kd [2]: 58.4 nM
- ka1 (two-state fit, first step) [2]: 164000
- ka2 (two-state fit, second step) [2]: 0.0112
- kd1 (two-state fit, first step) [2]: 0.0925 s⁻¹
- kd2 (two-state fit, second step) [2]: 0.00129 s⁻¹
- Kd [3]: 0.53 nM
- ka1 (two-state fit, first step) [3]: 2.3e+06
- ka2 (two-state fit, second step) [3]: 0.00454
- kd1 (two-state fit, first step) [3]: 0.00692 s⁻¹
- kd2 (two-state fit, second step) [3]: 0.000972 s⁻¹
B1: Twin-strep-tagged human IL-11 (ligand, UniProt P20809 22-199, looked up)
chain: PGPPPGPPRVSPDPRAELDSTVLLTRSLLADTRQLAAQLRDKFPADGDHNLDSLPTLAMSAGALGALQLPGVLTRLRADLLSYLRHVQWLRRAGGSSLKTLEPELGTLQARLDRLLRRLQLLMSRLALPQPPPDPPAPPLAPPSSAWGGIRAAHAILGGLHLTLDWAVRGLLLLKTRL
notes: human interleukin 11 (IL-11); A His-tagged hIL-11 from E. coli (hIL-11his) was used only in some Western blots of signalling, not in SPR; also called hIL-11ts; hIL-11

Binder: B2
- Kd [4]: 0.397 nM
- koff [4]: 0.000142 s⁻¹
- kon [4]: 360000 M⁻¹ s⁻¹
- EC50 of proliferation of Ba/F3-hgp130 cells (hgp130 on cells), 72 h [5]: 0.0578 nM

Binder: B3
- IC50 of sgp130Fc on growth of Ba/F3-gp130 cells induced by 1.7 nM cHIL-6 (blocks cHIL-6 with gp130 on cells) [6]: 0.324 nM
- IC50 of sgp130Fc on growth of Ba/F3-gp130 cells induced by 1.7 nM HIL-11 (blocks HIL-11 with gp130 on cells) [7]: 0.213 nM
- IC50 of sgp130Fc on growth of Ba/F3-gp130 cells induced by 1.7 nM HIL-6 (blocks HIL-6 with gp130 on cells) [8]: 0.428 nM
